T1: Mouse RON on cells (3T3-mRON cells; mouse colon and skin) (mouse, UniProt Q62190 24-1378)
T1 construct: That is its entry for mouse RON; also called murine RON
T1 sequence: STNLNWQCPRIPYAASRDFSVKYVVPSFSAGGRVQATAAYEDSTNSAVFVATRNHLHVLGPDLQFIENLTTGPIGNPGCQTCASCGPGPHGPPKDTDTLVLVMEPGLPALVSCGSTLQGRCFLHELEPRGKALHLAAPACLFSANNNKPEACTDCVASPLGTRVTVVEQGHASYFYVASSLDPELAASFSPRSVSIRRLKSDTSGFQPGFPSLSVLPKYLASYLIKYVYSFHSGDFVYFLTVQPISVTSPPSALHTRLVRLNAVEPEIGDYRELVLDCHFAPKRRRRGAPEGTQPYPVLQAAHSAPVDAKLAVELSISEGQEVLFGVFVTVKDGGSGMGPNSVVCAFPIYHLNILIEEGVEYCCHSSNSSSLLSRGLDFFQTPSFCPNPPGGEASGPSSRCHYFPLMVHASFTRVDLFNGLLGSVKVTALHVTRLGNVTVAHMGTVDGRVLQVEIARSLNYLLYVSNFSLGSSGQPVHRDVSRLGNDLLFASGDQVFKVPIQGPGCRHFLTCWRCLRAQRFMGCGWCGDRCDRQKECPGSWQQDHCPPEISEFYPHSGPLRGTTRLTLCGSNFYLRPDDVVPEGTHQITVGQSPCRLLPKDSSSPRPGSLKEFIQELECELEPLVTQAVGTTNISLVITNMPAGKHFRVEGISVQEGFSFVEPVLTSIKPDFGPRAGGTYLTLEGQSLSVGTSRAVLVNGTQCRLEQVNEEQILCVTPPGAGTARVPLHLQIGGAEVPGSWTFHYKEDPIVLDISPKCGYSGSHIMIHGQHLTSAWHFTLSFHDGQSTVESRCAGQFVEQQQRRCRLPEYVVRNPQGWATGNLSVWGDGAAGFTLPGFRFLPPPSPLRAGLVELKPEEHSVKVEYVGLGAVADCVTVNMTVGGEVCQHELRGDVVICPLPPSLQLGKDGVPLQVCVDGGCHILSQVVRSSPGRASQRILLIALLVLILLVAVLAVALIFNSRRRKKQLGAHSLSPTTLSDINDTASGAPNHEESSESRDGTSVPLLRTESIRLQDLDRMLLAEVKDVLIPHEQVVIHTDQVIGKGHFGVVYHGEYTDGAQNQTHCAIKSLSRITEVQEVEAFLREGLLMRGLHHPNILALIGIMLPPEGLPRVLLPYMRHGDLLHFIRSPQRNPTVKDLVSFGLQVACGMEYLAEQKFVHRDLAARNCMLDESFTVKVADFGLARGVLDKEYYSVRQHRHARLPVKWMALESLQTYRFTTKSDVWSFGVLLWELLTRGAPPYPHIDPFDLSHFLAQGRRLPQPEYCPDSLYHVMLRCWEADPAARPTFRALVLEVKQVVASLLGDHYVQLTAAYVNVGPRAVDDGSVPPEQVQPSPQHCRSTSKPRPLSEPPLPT


Tests used:
[1] = molecular target: T1, Mouse RON on cells (3T3-mRON cells; …); assay: flow cytometry on 3T3-mRON cells
[2] = molecular target: T2, Mouse RON-hIgG1 Fc (murine RON Sema/PSI/IPT1, natural leader + R33-V684, fused to human IgG1 Fc) (mouse); assay: SPR (Biacore), anti-Fc chip; legend names murine RON-Fc; the sheet's scheme ('RON or MSP' over 'MSP-Fc or RON-Fc') and have the MSPβ-Fc fusion captured and soluble RON-His injected
T2 construct: also called mRON-hFc; murine RON-Fc
Protocol: (§1) Binding kinetics of RON to MSP β-Fc fusion proteins and MSP proteins to RON-Fc fusions were determined using a Biacore 3000 optical biosensor equipped with a research-grade CM5 sensor chip (GE Healthcare). Amine coupling reagents, N-ethyl-N′-dimethylamino-propylcarbodiimide (EDC), N-hydroxy-succinimide (NHS) and sodium ethanolamine HCl, pH 8.5, were obtained from GE Healthcare. Standard coupling protocols were used to tether a rabbit anti-human IgG1 or rabbit anti-murine IgG2a (Jackson ImmunoResearch Laboratories) onto the biosensor surface. A biosensor chip that was subjected to the amine coupling procedure with no protein coupled was used to correct for non-specific binding. […] Various concentrations (500-3.9 nM, 2-fold dilution series) of RON-His, were injected in HBS-P buffer (10 mM HEPES, pH 7.5, 150 mM NaCl, 0.005% P20) at 25° C. with a flow rate of 30 μL/min and dissociation monitored for 240 sec. Between measurements, the biosensor surfaces were regenerated with a 120 s pulse of 10 mM glycine-HCl pH 1.5 followed by a 120 s wash with running buffer.

[3] = molecular target: T1, Mouse RON on cells (3T3-mRON cells; …); assay: cell-based or functional assay
[4] = molecular target: T3, Human RON-hIgG1 Fc (RON Sema/PSI/IPT1 fused to human IgG1 Fc) (human); assay: SPR capturing RON-Fc at 25 C
T3 construct: also called RON-Fc; hRON-Fc
Protocol: To determine MSP protein binding kinetics to hRON-Fc or mRON-Fc fusion proteins, between 50 and 100 response units (RU) were captured on each of three immobilized anti-human Fc surfaces. Various concentrations (50-0.78 nM, 2-fold dilution series) of MSP, MSP β, MSP α or scMSP were injected in HBS-P buffer (10 mM HEPES, pH 7.5, 150 mM NaCl, 0.005% P20) at 25° C. with a flow rate of 30 μL/min and dissociation monitored for 4 min. Between measurements, the biosensor surfaces were regenerated with a 2 min pulse of 10 mM glycine-HCl pH 1.5.

[5] = molecular target: T4, Recombinant human RON Sema/PSI (residues E25-P568) with C-terminal His-tag (human, UniProt Q04912 25-568); assay: SPR using immobilized RON Sema/PSI at 25 C
T4 construct: Made in Trichoplusia ni insect cells

[6] = molecular target: T2, Mouse RON-hIgG1 Fc (murine RON …); assay: SPR (Biacore), anti-Fc chip, murine RON-Fc captured and MSP protein injected; table headed 'Similar High Affinities for Murine RON'
Protocol: as §1
To function as a RON agonist, MSPβ-IgG2a fusion proteins must bind the RON receptor. To assay binding, surface plasmon resonance was used to measure the affinity of full-length human MSP, human and mouse MSP β, and a number of human and mouse MSPβ-IgG2a fusions for immobilized RON receptor. […]

[7] = molecular target: T3, Human RON-hIgG1 Fc (RON Sema/PSI/IPT1 …); assay: BLI using RON-Fc at 30 C
Protocol: Real-time kinetic measurements of MSP binding to RON were conducted using an Octet RED384 (ForteBio, Inc). Samples or buffer were dispensed into 96-well microtiter plates (Greiner Bio-One North America, Inc.) at a volume of 200 μl per well. Anti-human IgG Fc Biosensors were used for the experiments. Each experiment consisted of three steps: incubation with ForteBio Kinetic buffer diluted 1:10 in PBS assay buffer to establish an equilibrium for 120 s (baseline), incubation with 10 μg/ml RON-Fc in assay buffer to coat the biosensor with binding target for 900 s (load), incubation with MSP, MSP β or scMSP in assay buffer containing various concentrations (75-4.7 nM, 2-fold dilution series) for 400 s (association), and incubation with assay buffer to measure the off-rate of MSP for 400 s (dissociation). Operating temperature was maintained at 30° C. Data were generated automatically by the Octet Data Acquisition 7.0 software. Each data set was fitted globally to a simple one-to-one binding model using ForteBio Analysis Software 7.0 to determine the kinetic parameters kₐ and kd. The equilibrium dissociation constants (KD) were then calculated as a ratio (koff/kₒₙ) of these rate constants.

T3 sequence (chain, as listed by the source limits assumed): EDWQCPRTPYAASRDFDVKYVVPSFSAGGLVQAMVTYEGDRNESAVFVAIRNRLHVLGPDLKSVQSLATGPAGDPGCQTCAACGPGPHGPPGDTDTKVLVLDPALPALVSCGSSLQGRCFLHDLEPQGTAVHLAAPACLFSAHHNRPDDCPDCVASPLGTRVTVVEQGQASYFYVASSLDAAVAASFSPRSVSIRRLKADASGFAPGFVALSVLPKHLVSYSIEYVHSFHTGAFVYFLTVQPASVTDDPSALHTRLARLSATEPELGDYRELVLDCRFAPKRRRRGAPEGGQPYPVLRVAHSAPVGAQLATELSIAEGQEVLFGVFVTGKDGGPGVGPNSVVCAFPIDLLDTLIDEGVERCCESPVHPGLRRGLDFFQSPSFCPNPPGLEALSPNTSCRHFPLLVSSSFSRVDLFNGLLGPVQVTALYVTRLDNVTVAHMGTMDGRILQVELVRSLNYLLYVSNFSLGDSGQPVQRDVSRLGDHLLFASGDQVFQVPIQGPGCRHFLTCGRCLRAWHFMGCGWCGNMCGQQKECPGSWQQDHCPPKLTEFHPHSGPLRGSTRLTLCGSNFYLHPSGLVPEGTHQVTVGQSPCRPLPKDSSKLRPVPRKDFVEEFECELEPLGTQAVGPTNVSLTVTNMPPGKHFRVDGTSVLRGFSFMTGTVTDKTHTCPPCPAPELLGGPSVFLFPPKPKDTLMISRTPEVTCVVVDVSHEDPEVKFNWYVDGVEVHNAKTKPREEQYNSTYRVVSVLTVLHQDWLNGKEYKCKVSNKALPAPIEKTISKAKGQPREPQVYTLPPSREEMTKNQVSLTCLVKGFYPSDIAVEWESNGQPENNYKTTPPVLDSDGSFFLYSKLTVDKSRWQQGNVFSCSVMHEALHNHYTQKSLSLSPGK

Row | Binder | EC50 (read off the curve) [1] | Kd [2] | fold increase in Akt phosphorylation, MSD, colon of injected mice [3] | Kd [6] | other results
1 | Mouse MSP β-L12-mIgG2a Fc (Fc fusion, also called m12m; mMSPβ-L12-mIgG2a) VVGGHPGNSPWTVSLRNRQGQHFCGGSLVKEQWVLTARQCIWSCHEPLTGYEVWLGTINQNPQPGEANLQRVPVAKAVCGPAGSQLVLLKLERPVILNHHVALIALPPEQYVVPPGTKCEIAGWGESIGTSNNTVLHVASMNVISNQECNTKYRGHIQESEICTQGLVVPVGACEGDYGGPLACYTHDAWVLQGLIIPNRVCARPRWPAIFTRVSVFVDWINKVMQLEKKIEPRGPTIKPCPPCKCPAPNLLGGPSVFIFPPKIKDVLMISLSPIVTCVVVDVSEDDPDVQISWFVNNVEVHTAQTQTHREDYNSTLRVVSALPIQHQDWMSGKEFKCKVNNKDLPAPIERTISKPKGSVRAPQVYVLPPPEEEMTKKQVTLTCMVTDFMPEDIYVEWTNNGKTELNYKNTEPVLDSDGSYFMYSKLRVEKKNWVERNSYSCSVVHEGLHNHHTTKSFSRTPGK | ~0.05 µg/mL | 10.4 nM | ~2.3 fold |  | 
2 | Human MSP β 689R (HGF leader + V484-G711 + C588S + C672A + His tag) (ligand, This is an inference) VVGGHPGNSPWTVSLRNRQGQHFCGGSLVKEQWILTARQCFSSCHMPLTGYEVWLGTLFQNPQHGEPSLQRVPVAKMVCGPSGSQLVLLKLERSVTLNQRVALISLPPEWYVVPPGTKCEIAGWGETKGTGNDTVLNVALLNVISNQECNIKHRGRVRESEMCTEGLLAPVGACEGDYGGPLACFTHNAWVLEGIIIPNRVCARSRWPAVFTRVSVFVDWIHKVMRLGHHHHHH |  |  |  | 5.1 nM | Kd [4]: 9.6 nM; koff [4]: 0.0275 s⁻¹; kon [4]: 3.53e+06 M⁻¹ s⁻¹; Kd [5]: 6.6 nM; koff [5]: 0.0159 s⁻¹; kon [5]: 2.45e+06 M⁻¹ s⁻¹; Kd [7]: 7.5 nM; koff [7]: 0.0025 s⁻¹; kon [7]: 388000 M⁻¹ s⁻¹
3 | Hexahistidine-tagged murine MSP β (HGF leader + V489-E716 + C593A + C677A + His tag) (ligand, also called Mouse MSP β) VVGGHPGNSPWTVSLRNRQGQHFCGGSLVKEQWVLTARQCIWSCHEPLTGYEVWLGTINQNPQPGEANLQRVPVAKAVCGPAGSQLVLLKLERPVILNHHVALIALPPEQYVVPPGTKCEIAGWGESIGTSNNTVLHVASMNVISNQECNTKYRGHIQESEICTQGLVVPVGACEGDYGGPLACYTHDAWVLQGLIIPNRVCARPRWPAIFTRVSVFVDWINKVMLEHHHHHHH |  |  |  | 6.4 nM | 
4 | Mouse MSP β-L4-mIgG2a Fc (Fc fusion, also called m4m) VVGGHPGNSPWTVSLRNRQGQHFCGGSLVKEQWVLTARQCIWSCHEPLTGYEVWLGTINQNPQPGEANLQRVPVAKAVCGPAGSQLVLLKLERPVILNHHVALIALPPEQYVVPPGTKCEIAGWGESIGTSNNTVLHVASMNVISNQECNTKYRGHIQESEICTQGLVVPVGACEGDYGGPLACYTHDAWVLQGLIIPNRVCARPRWPAIFTRVSVFVDWINKVMQLETIKPCPPCKCPAPNLLGGPSVFIFPPKIKDVLMISLSPIVTCVVVDVSEDDPDVQISWFVNNVEVHTAQTQTHREDYNSTLRVVSALPIQHQDWMSGKEFKCKVNNKDLPAPIERTISKPKGSVRAPQVYVLPPPEEEMTKKQVTLTCMVTDFMPEDIYVEWTNNGKTELNYKNTEPVLDSDGSYFMYSKLRVEKKNWVERNSYSCSVVHEGLHNHHTTKSFSRTPGK |  | 8.3 nM | ~2.6 fold |  | 
5 | Mouse MSP β-L8-mIgG2a Fc (Fc fusion, also called m8m) VVGGHPGNSPWTVSLRNRQGQHFCGGSLVKEQWVLTARQCIWSCHEPLTGYEVWLGTINQNPQPGEANLQRVPVAKAVCGPAGSQLVLLKLERPVILNHHVALIALPPEQYVVPPGTKCEIAGWGESIGTSNNTVLHVASMNVISNQECNTKYRGHIQESEICTQGLVVPVGACEGDYGGPLACYTHDAWVLQGLIIPNRVCARPRWPAIFTRVSVFVDWINKVMQLEPRGPTIKPCPPCKCPAPNLLGGPSVFIFPPKIKDVLMISLSPIVTCVVVDVSEDDPDVQISWFVNNVEVHTAQTQTHREDYNSTLRVVSALPIQHQDWMSGKEFKCKVNNKDLPAPIERTISKPKGSVRAPQVYVLPPPEEEMTKKQVTLTCMVTDFMPEDIYVEWTNNGKTELNYKNTEPVLDSDGSYFMYSKLRVEKKNWVERNSYSCSVVHEGLHNHHTTKSFSRTPGK | ~0.05 µg/mL | 8.5 nM | ~2 fold |  | 
6 | Mouse MSP β-L16-mIgG2a Fc (Fc fusion, also called m16m) VVGGHPGNSPWTVSLRNRQGQHFCGGSLVKEQWVLTARQCIWSCHEPLTGYEVWLGTINQNPQPGEANLQRVPVAKAVCGPAGSQLVLLKLERPVILNHHVALIALPPEQYVVPPGTKCEIAGWGESIGTSNNTVLHVASMNVISNQECNTKYRGHIQESEICTQGLVVPVGACEGDYGGPLACYTHDAWVLQGLIIPNRVCARPRWPAIFTRVSVFVDWINKVMQLEQVTDKKIEPRGPTIKPCPPCKCPAPNLLGGPSVFIFPPKIKDVLMISLSPIVTCVVVDVSEDDPDVQISWFVNNVEVHTAQTQTHREDYNSTLRVVSALPIQHQDWMSGKEFKCKVNNKDLPAPIERTISKPKGSVRAPQVYVLPPPEEEMTKKQVTLTCMVTDFMPEDIYVEWTNNGKTELNYKNTEPVLDSDGSYFMYSKLRVEKKNWVERNSYSCSVVHEGLHNHHTTKSFSRTPGK | ~0.05 µg/mL | 8.4 nM | ~2.5 fold |  | 

Reference: patent publication US20160032013A1 (Genentech, published 2016)
